Data from patent US20230406935A1 (F STAR THERAPEUTICS, published 2023).

Key:
[1] = biological target: T1, Monomeric His-tagged human PD-L1 (Acro biosystems PD1-H5229) (human, UniProt Q9NZQ7 19-238); test: SPR Biacore T200, mAb^2 captured by anti-Fab on CM5, monomeric antigen in flow, 1:1 fit
T1 construct: also called hPD-L1-his; PD-L1-his

[2] = biological target: T2, Monomeric cynomolgus PD-L1 (Acro Biosciences PD1-C52H4) (cynomolgus, UniProt Q9NZQ7 19-238 (human entry)); test: as above
T2 construct: also called cynomolgus monomeric PD-L1

[3] = biological target: T3, Human PD-L1 expressed on cells (human, UniProt Q9NZQ7 19-290); test: cell-based or functional assay
[4] = biological target: T3, Human PD-L1 expressed on cells; test: flow cytometry, HEK293 cells overexpressing the target, anti-human Fc 488
Description: (§1) Cell binding assays were performed by incubating Fcabs or mAb² proteins with either control HEK293 cells or HEK293 cells overexpressing hPD-L1 or cynomolgus PD-L1 cells for 1 hour at 4° C. Fcab/mAb binding was subsequently detected using an anti-human Fc 488 detection antibody. Fluorescent signal intensities were measured using a FACS canto.

[5] = biological target: T4, Cynomolgus PD-L1 expressed on HEK 293 cells (cynomolgus, UniProt Q9NZQ7 19-290 (human entry)); test: as above
T4 construct: also called cell-expressed cynomolgus PD-L1
Description: as §1

[6] = biological target: T1, Monomeric His-tagged human PD-L1 (Acro …); test: off-rate, binding to hPD-L1, mock mAb^2; instrument not stated
[7] = biological target: T3, Human PD-L1 expressed on cells; test: cell-based or functional assay; remark: listed apart in the source
[8] = biological target: T1, Monomeric His-tagged human PD-L1 (Acro …); test: off-rate on PD-L1, mock mAb^2; instrument not given
[9] = biological target: T5, Biotinylated hPD-L1-Fc-Avi (human, UniProt Q9NZQ7 19-238); test: cell-based RBA, blocking of hPD-L1-Fc-Avi binding to HEK293 hPD-1 cells
Description: (§2) The ability of the Fcabs and mock mAb² to block hPD-1/hPD-L1 and hPD-L1/hCD80 interactions was tested in cell-based Receptor Binding Assays (RBA). […] The mix was incubated for another hour with HEK293 cells overexpressing either hPD-1 or hCD80.

[10] = biological target: T5, Biotinylated hPD-L1-Fc-Avi; test: cell-based RBA, blocking of hPD-L1-Fc-Avi binding to HEK293 hCD80 cells
Description: as §2

[11] = biological target: T1, Monomeric His-tagged human PD-L1 (Acro …); test: SPR Biacore T200, Fcab captured on protein A chip, monomeric antigen in flow, 1:1 fit
[12] = biological target: T2, Monomeric cynomolgus PD-L1 (Acro …); test: as above

T4 sequence (Q9NZQ7 other isoform, or with tags, fused parts or gaps limits assumed): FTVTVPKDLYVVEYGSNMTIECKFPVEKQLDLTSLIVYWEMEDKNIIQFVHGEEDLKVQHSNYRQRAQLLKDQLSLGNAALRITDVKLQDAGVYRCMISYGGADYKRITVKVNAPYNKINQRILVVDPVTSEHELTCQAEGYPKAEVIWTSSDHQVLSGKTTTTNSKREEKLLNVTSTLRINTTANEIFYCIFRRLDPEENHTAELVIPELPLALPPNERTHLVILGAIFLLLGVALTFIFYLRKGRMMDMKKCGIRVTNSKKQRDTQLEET
T3 sequence (Q9NZQ7 19-290 limits assumed): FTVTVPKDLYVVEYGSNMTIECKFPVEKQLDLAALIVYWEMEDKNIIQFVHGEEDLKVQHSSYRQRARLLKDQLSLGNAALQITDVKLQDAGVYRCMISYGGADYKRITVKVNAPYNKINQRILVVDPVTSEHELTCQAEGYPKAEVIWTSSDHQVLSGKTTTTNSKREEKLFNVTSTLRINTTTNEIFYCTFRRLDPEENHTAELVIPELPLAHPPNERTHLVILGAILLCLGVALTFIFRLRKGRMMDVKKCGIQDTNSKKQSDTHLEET
T5 sequence (Q9NZQ7 19-238 limits assumed): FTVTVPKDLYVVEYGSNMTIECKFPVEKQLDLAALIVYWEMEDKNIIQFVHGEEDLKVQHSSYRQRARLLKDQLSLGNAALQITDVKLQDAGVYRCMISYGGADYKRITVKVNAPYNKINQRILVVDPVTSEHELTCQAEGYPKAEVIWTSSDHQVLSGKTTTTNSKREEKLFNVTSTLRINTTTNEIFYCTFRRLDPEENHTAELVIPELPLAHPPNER
T1 sequence (Q9NZQ7 19-238 limits assumed): as above
T2 sequence (Q9NZQ7 other isoform, or with tags, fused parts or gaps limits assumed): as the sequence (Q9NZQ7 19-238 limits assumed) above, with A33T, A34S, S62N, R68Q, Q82R, F173L, T185A, T192I, H215L counted along it

Row | Binder | Kd [1] [nM] | Kd [2] [nM] | DO11.10 T cell activation assay EC50 [3] [nM] | Kd [4] [nM] | Kd [5] [nM] | koff [6] [s⁻¹] | DO11.10 EC50 [7] [nM] | koff [8] [s⁻¹] | EC50 [9] [nM] | EC50 [10] [nM] | Kd [11] [nM] | Kd [12] [nM]
1 | FS17-33-288AA/HelD1.3 mock mAb^2 (bispecific antibody, human IgG1, kappa, L234A L235A, also called F17-33-288AA/HelD1.3; F17-33-288AA/HELD1.3) heavy: QVQLQESGPGLVRPSQTLSLTCTVSGSTFSGYGVNWVRQPPGRGLEWIGMIWGDGNTDYNSALKSRVTMLVDTSKNQFSLRLSSVTAADTAVYYCARERDYRLDYWGQGSLVTVSSASTKGPSVFPLAPSSKSTSGGTAALGCLVKDYFPEPVTVSWNSGALTSGVHTFPAVLQSSGLYSLSSVVTVPSSSLGTQTYICNVNHKPSNTKVDKKVEPKSCDKTHTCPPCPAPEAAGGPSVFLFPPKPKDTLMISRTPEVTCVVVDVSHEDPEVKFNWYVDGVEVHNAKTKPREEQYNSTYRVVSVLTVLHQDWLNGKEYKCKVSNKALPAPIEKTISKAKGQPREPQVYTLPPSRDESGYWVSLTCLVKGFYPSDIVVEWESNGEPQYWAKTTPPVLDSDGSFFLYSKLTVSNWRWQIDDFSCSVMHEALHNHYTQKSLSLSPGK light: DIQMTQSPASLSASVGETVTITCRASGNIHNYLAWYQQKQGKSPQLLVYNAKTLADGVPSRFSGSGSGTQYSLKINSLQPEDFGSYYCQHFWSTPRTFGGGTKLEIKRTVAAPSVFIFPPSDEQLKSGTASVVCLLNNFYPREAKVQWKVDNALQSGNSQESVTEQDSKDSTYSLSSTLTLSKADYEKHKVYACEVTHQGLSSPVTKSFNRGEC | 1.43 | 2 | 0.428 | 15.2 | 7.8 |  |  |  |  |  |  | 
2 | FS17-33-449AA/HelD1.3 mock mAb^2 (bispecific antibody, human IgG1, kappa, L234A L235A) heavy: QVQLQESGPGLVRPSQTLSLTCTVSGSTFSGYGVNWVRQPPGRGLEWIGMIWGDGNTDYNSALKSRVTMLVDTSKNQFSLRLSSVTAADTAVYYCARERDYRLDYWGQGSLVTVSSASTKGPSVFPLAPSSKSTSGGTAALGCLVKDYFPEPVTVSWNSGALTSGVHTFPAVLQSSGLYSLSSVVTVPSSSLGTQTYICNVNHKPSNTKVDKKVEPKSCDKTHTCPPCPAPEAAGGPSVFLFPPKPKDTLMISRTPEVTCVVVDVSHEDPEVKFNWYVDGVEVHNAKTKPREEQYNSTYRVVSVLTVLHQDWLNGKEYKCKVSNKALPAPIEKTISKAKGQPREPQVYTLPPSRDETGYWVSLTCLVKGFYPSDIAVEWESNGEPQYWAKTTPPVLDSDGSFFLYSKLTVSNWRWQLDDVFSCSVMHEALHNHYTQKSLSLSPGK light: DIQMTQSPASLSASVGETVTITCRASGNIHNYLAWYQQKQGKSPQLLVYNAKTLADGVPSRFSGSGSGTQYSLKINSLQPEDFGSYYCQHFWSTPRTFGGGTKLEIKRTVAAPSVFIFPPSDEQLKSGTASVVCLLNNFYPREAKVQWKVDNALQSGNSQESVTEQDSKDSTYSLSSTLTLSKADYEKHKVYACEVTHQGLSSPVTKSFNRGEC | 0.49 | 0.9 | 0.95 |  |  | 0.000311 |  |  |  |  |  | 
3 | FS17-33-451AA/HelD1.3 mock mAb^2 (bispecific antibody, human IgG1, kappa, L234A L235A, also called F17-33-451AA/HelD1.3; F17-33-451AA/HELD1.3) heavy: QVQLQESGPGLVRPSQTLSLTCTVSGSTFSGYGVNWVRQPPGRGLEWIGMIWGDGNTDYNSALKSRVTMLVDTSKNQFSLRLSSVTAADTAVYYCARERDYRLDYWGQGSLVTVSSASTKGPSVFPLAPSSKSTSGGTAALGCLVKDYFPEPVTVSWNSGALTSGVHTFPAVLQSSGLYSLSSVVTVPSSSLGTQTYICNVNHKPSNTKVDKKVEPKSCDKTHTCPPCPAPEAAGGPSVFLFPPKPKDTLMISRTPEVTCVVVDVSHEDPEVKFNWYVDGVEVHNAKTKPREEQYNSTYRVVSVLTVLHQDWLNGKEYKCKVSNKALPAPIEKTISKAKGQPREPQVYTLPPSRDEEGYWVSLTCLVKGFYPSDIAVEWESNGEPQYWAKTTPPVLDSDGSFFLYSKLTVSNWRWQLDDVFSCSVMHEALHNHYTQKSLSLSPGK light: DIQMTQSPASLSASVGETVTITCRASGNIHNYLAWYQQKQGKSPQLLVYNAKTLADGVPSRFSGSGSGTQYSLKINSLQPEDFGSYYCQHFWSTPRTFGGGTKLEIKRTVAAPSVFIFPPSDEQLKSGTASVVCLLNNFYPREAKVQWKVDNALQSGNSQESVTEQDSKDSTYSLSSTLTLSKADYEKHKVYACEVTHQGLSSPVTKSFNRGEC | 0.45 | 0.63 | 1.03 |  |  | 0.000253 |  |  |  |  |  | 
4 | FS17-33-334AA/HelD1.3 mock mAb^2 (bispecific antibody, human IgG1, kappa, L234A L235A) heavy: QVQLQESGPGLVRPSQTLSLTCTVSGSTFSGYGVNWVRQPPGRGLEWIGMIWGDGNTDYNSALKSRVTMLVDTSKNQFSLRLSSVTAADTAVYYCARERDYRLDYWGQGSLVTVSSASTKGPSVFPLAPSSKSTSGGTAALGCLVKDYFPEPVTVSWNSGALTSGVHTFPAVLQSSGLYSLSSVVTVPSSSLGTQTYICNVNHKPSNTKVDKKVEPKSCDKTHTCPPCPAPEAAGGPSVFLFPPKPKDTLMISRTPEVTCVVVDVSHEDPEVKFNWYVDGVEVHNAKTKPREEQYNSTYRVVSVLTVLHQDWLNGKEYKCKVSNKALPAPIEKTISKAKGQPREPQVYTLPPSRDESGYWVSLTCLVKGFYPSDIAVEWESNGEPQYWAKTTPPVLDSDGSFFLYSKLTVSNWRWQLDDFSCSVMHEALHNHYTQKSLSLSPGK light: DIQMTQSPASLSASVGETVTITCRASGNIHNYLAWYQQKQGKSPQLLVYNAKTLADGVPSRFSGSGSGTQYSLKINSLQPEDFGSYYCQHFWSTPRTFGGGTKLEIKRTVAAPSVFIFPPSDEQLKSGTASVVCLLNNFYPREAKVQWKVDNALQSGNSQESVTEQDSKDSTYSLSSTLTLSKADYEKHKVYACEVTHQGLSSPVTKSFNRGEC | 1.45 | 1.9 | 0.934 | 8.9 | 0.91 | 0.000291 | 0.403 | 0.000372 |  |  |  | 
5 | Fcab FS17-33-289 (designed binder) TCPPCPAPELLGGPSVFLFPPKPKDTLMISRTPEVTCVVVDVSHEDPEVKFNWYVDGVEVHNAKTKPREEQYNSTYRVVSVLTVLHQDWLNGKEYKCKVSNKALPAPIEKTISKAKGQPREPQVYTLPPSRDESGYWVSLTCLVKGFYPSDIVVEWESNGEPQYWAKTTPPVLDSDGSFFLYSKLTVSNWRWQLDDFSCSVMHEALHNHYTQKSLSLSPGK |  |  |  | 1 | 0.44 |  |  |  | 10.1 | 9.2 | 0.54 | 0.66
6 | Fcab FS17-33-334 (designed binder) TCPPCPAPELLGGPSVFLFPPKPKDTLMISRTPEVTCVVVDVSHEDPEVKFNWYVDGVEVHNAKTKPREEQYNSTYRVVSVLTVLHQDWLNGKEYKCKVSNKALPAPIEKTISKAKGQPREPQVYTLPPSRDESGYWVSLTCLVKGFYPSDIAVEWESNGEPQYWAKTTPPVLDSDGSFFLYSKLTVSNWRWQLDDFSCSVMHEALHNHYTQKSLSLSPGK |  |  |  | 2.06 | 0.68 |  |  |  | 0.99 | 0.55 | 1.93 | 2.18
7 | Fcab FS17-33-288 (designed binder) TCPPCPAPELLGGPSVFLFPPKPKDTLMISRTPEVTCVVVDVSHEDPEVKFNWYVDGVEVHNAKTKPREEQYNSTYRVVSVLTVLHQDWLNGKEYKCKVSNKALPAPIEKTISKAKGQPREPQVYTLPPSRDESGYWVSLTCLVKGFYPSDIVVEWESNGEPQYWAKTTPPVLDSDGSFFLYSKLTVSNWRWQIDDFSCSVMHEALHNHYTQKSLSLSPGK |  |  |  | 2.5 | 2.6 |  |  |  | 2.8 | 0.79 | 1.6 | 2.1
8 | Fcab FS17-33-296 (designed binder) TCPPCPAPELLGGPSVFLFPPKPKDTLMISRTPEVTCVVVDVSHEDPEVKFNWYVDGVEVHNAKTKPREEQYNSTYRVVSVLTVLHQDWLNGKEYKCKVSNKALPAPIEKTISKAKGQPREPQVYTLPPSRDESGYWVSLTCLVKGFYPSDIVVEWESNGEPQYWAKTTPPVLDSDGSFFLYSKLTVSNWRWQVDDFSCSVMHEALHNHYTQKSLSLSPGK |  |  |  | 1 | 0.5 |  |  |  | 9 | 8.8 | 0.73 | 0.87
